# Test results taken from the supplement of paper PMC10567573.
# B1: MNAT1 (parent)
# chain: LAPIHKLEEALYEYQPLQIETYGP
# B2: TBX5 (parent)
# chain: YQNHKITQLKIENNPFAKGFRGSD
# Variants of: B1
# Experiment: protein stability index of a GFP-peptide fusion (GPS, HEK-293T) (PSI 1-6); higher = more stable
# Settings: c terminus: a fixed tail appended
# 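Further: lentivirally expressed fusions sorted by FACS into six bins by GFP to DsRed ratio, PSI derived from sequencing read proportions per bin multiplied by bin number.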
row,Variant,protein stability index
1,LAPIDKLEEALYEYQPLQIETYGP [H5D],2.33
2,LAPICKLEEALYEYQPLQIETYGP [H5C],1.64
3,LAPIAKLEEALYEYQPLQIETYGP [H5A],2.17
4,LAPIGKLEEALYEYQPLQIETYGP [H5G],1.96
5,LAPIEKLEEALYEYQPLQIETYGP [H5E],1.92
6,LAPIFKLEEALYEYQPLQIETYGP [H5F],2.03
7,LASIHKLEEALYEYQPLQIETYGP [P3S],2.12
8,LAVIHKLEEALYEYQPLQIETYGP [P3V],2.7
9,LAMIHKLEEALYEYQPLQIETYGP [P3M],2.48
10,LAWIHKLEEALYEYQPLQIETYGP [P3W],1.44
11,LAKIHKLEEALYEYQPLQIETYGP [P3K],2.04
12,LARIHKLEEALYEYQPLQIETYGP [P3R],2.1
13,LAGIHKLEEALYEYQPLQIETYGP [P3G],2.02
14,LAFIHKLEEALYEYQPLQIETYGP [P3F],2.67
15,LAYIHKLEEALYEYQPLQIETYGP [P3Y],2.18
16,LAHIHKLEEALYEYQPLQIETYGP [P3H],1.87
17,LALIHKLEEALYEYQPLQIETYGP [P3L],2.95
18,LATIHKLEEALYEYQPLQIETYGP [P3T],2.32
19,LACIHKLEEALYEYQPLQIETYGP [P3C],1.53
20,LAIIHKLEEALYEYQPLQIETYGP [P3I],2.72
21,LAQIHKLEEALYEYQPLQIETYGP [P3Q],1.67

row,Variant,protein stability index
1,LADIHKLEEALYEYQPLQIETYGP [P3D],1.46
2,LAAIHKLEEALYEYQPLQIETYGP [P3A],2.23
3,LANIHKLEEALYEYQPLQIETYGP [P3N],1.32
4,LAEIHKLEEALYEYQPLQIETYGP [P3E],1.97
5,RAPIHKLEEALYEYQPLQIETYGP [L1R],2.5
6,NAPIHKLEEALYEYQPLQIETYGP [L1N],2.79
7,EAPIHKLEEALYEYQPLQIETYGP [L1E],2.52
8,PAPIHKLEEALYEYQPLQIETYGP [L1P],2.3
9,MAPIHKLEEALYEYQPLQIETYGP [L1M],1.87
10,YAPIHKLEEALYEYQPLQIETYGP [L1Y],2.12
11,SAPIHKLEEALYEYQPLQIETYGP [L1S],2.62
12,TAPIHKLEEALYEYQPLQIETYGP [L1T],2.33
13,CAPIHKLEEALYEYQPLQIETYGP [L1C],1.25
14,KAPIHKLEEALYEYQPLQIETYGP [L1K],2.33
15,QAPIHKLEEALYEYQPLQIETYGP [L1Q],2.47
16,GAPIHKLEEALYEYQPLQIETYGP [L1G],1.98
17,VAPIHKLEEALYEYQPLQIETYGP [L1V],2.31
18,IAPIHKLEEALYEYQPLQIETYGP [L1I],1.94
19,AAPIHKLEEALYEYQPLQIETYGP [L1A],2.28
20,DAPIHKLEEALYEYQPLQIETYGP [L1D],2.31
21,WAPIHKLEEALYEYQPLQIETYGP [L1W],2.56

row,Variant,protein stability index
1,HAPIHKLEEALYEYQPLQIETYGP [L1H],1.67
2,LRPIHKLEEALYEYQPLQIETYGP [A2R],1.62
3,LFPIHKLEEALYEYQPLQIETYGP [A2F],3.4
4,LNPIHKLEEALYEYQPLQIETYGP [A2N],2.23
5,LHPIHKLEEALYEYQPLQIETYGP [A2H],2.21
6,LLPIHKLEEALYEYQPLQIETYGP [A2L],2.93
7,LDPIHKLEEALYEYQPLQIETYGP [A2D],1.77
8,LQPIHKLEEALYEYQPLQIETYGP [A2Q],2.07
9,LSPIHKLEEALYEYQPLQIETYGP [A2S],2.29
10,LPPIHKLEEALYEYQPLQIETYGP [A2P],2.3
11,LTPIHKLEEALYEYQPLQIETYGP [A2T],2.63
12,LVPIHKLEEALYEYQPLQIETYGP [A2V],2.54
13,LWPIHKLEEALYEYQPLQIETYGP [A2W],2.44
14,LMPIHKLEEALYEYQPLQIETYGP [A2M],1.63
15,LGPIHKLEEALYEYQPLQIETYGP [A2G],1.45
16,LCPIHKLEEALYEYQPLQIETYGP [A2C],1.68
17,LYPIHKLEEALYEYQPLQIETYGP [A2Y],1.9
18,LIPIHKLEEALYEYQPLQIETYGP [A2I],1.91
19,LEPIHKLEEALYEYQPLQIETYGP [A2E],2.47
20,LKPIHKLEEALYEYQPLQIETYGP [A2K],1.92
21,LAPPHKLEEALYEYQPLQIETYGP [I4P],2.55

row,Variant,protein stability index
1,LAPFHKLEEALYEYQPLQIETYGP [I4F],1.88
2,LAPGHKLEEALYEYQPLQIETYGP [I4G],3.06
3,LAPWHKLEEALYEYQPLQIETYGP [I4W],1.59
4,LAPNHKLEEALYEYQPLQIETYGP [I4N],2.35
5,LAPVHKLEEALYEYQPLQIETYGP [I4V],2.13
6,LAPCHKLEEALYEYQPLQIETYGP [I4C],2.49
7,LAPHHKLEEALYEYQPLQIETYGP [I4H],2.63
8,LAPYHKLEEALYEYQPLQIETYGP [I4Y],1.66
9,LAPLHKLEEALYEYQPLQIETYGP [I4L],2.04
10,LAPRHKLEEALYEYQPLQIETYGP [I4R],2.75
11,LAPTHKLEEALYEYQPLQIETYGP [I4T],2.15
12,LAPAHKLEEALYEYQPLQIETYGP [I4A],2.95
13,LAPEHKLEEALYEYQPLQIETYGP [I4E],2.78
14,LAPSHKLEEALYEYQPLQIETYGP [I4S],2.3
15,LAPDHKLEEALYEYQPLQIETYGP [I4D],2.78
16,LAPQHKLEEALYEYQPLQIETYGP [I4Q],2.7
17,LAPKHKLEEALYEYQPLQIETYGP [I4K],2.17
18,LAPMHKLEEALYEYQPLQIETYGP [I4M],1.92

# Variants of: B2
# Experiment: as above
# Settings: c terminus: a fixed tail appended
row,Variant,protein stability index
1,YQNHKIFQLKIENNPFAKGFRGSD [T7F],1.61
2,YQNHKIPQLKIENNPFAKGFRGSD [T7P],2.85
3,YQNHKIQQLKIENNPFAKGFRGSD [T7Q],2.63
4,YQNHKIHQLKIENNPFAKGFRGSD [T7H],2.77
5,YQNHKITQLKQENNPFAKGFRGSD [I11Q],2.58
6,YQNHKITQLKEENNPFAKGFRGSD [I11E],3.23
7,YQNHKITQLKCENNPFAKGFRGSD [I11C],2.48
8,YQNHKITQLKWENNPFAKGFRGSD [I11W],2.34
9,YQNHKITQLKDENNPFAKGFRGSD [I11D],3.27
10,YQNHKITQLKIENNPFAKGFRFSD [G22F],1.74
11,YQNHKITQLKIENNPFAKGFRDSD [G22D],2.56
12,YQNHKITQLKIENNPFAKGFRCSD [G22C],2.24
13,YQNHKITQLKIENNPFYKGFRGSD [A17Y],2.18
